# Test results as given in patent US20150203575A1 (Genentech, published 2015).
# Experiments:
# [1] = target: T1, human COLEC12 expressed on cells (human, UniProt Q5KU26 1-742); assay: flow cytometry, transfected 293T cells, 50 µg/ml; 293T-Neo: 1.1
# T1 construct: also called hCOLEC12; C-terminal his tagged hCOLEC12
# [2] = target: T2, human NPDC1 expressed on cells (human, UniProt Q9NQX5 35-325); assay: as above
# T2 construct: also called hNPDC1; hNPCD1
# T2 sequence: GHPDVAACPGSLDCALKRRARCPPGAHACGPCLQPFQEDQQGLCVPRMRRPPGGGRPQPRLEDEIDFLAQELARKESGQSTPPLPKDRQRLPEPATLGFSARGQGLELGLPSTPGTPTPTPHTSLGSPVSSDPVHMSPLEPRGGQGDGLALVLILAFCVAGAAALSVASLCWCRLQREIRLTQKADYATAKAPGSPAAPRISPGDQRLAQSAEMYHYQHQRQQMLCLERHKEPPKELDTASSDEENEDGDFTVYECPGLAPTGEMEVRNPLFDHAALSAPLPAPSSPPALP
# [3] = target: T3, mouse CD99 expressed on 293T cells (mouse, UniProt Q8VCN6 29-175, sialylated O-glycans at Thr-45 and Thr-50 (cited as relevant for PILRα recognition)); assay: as above
# T3 construct: whole, on cells; also called mCD99; mCD99 transfectants
# T3 sequence (looked up): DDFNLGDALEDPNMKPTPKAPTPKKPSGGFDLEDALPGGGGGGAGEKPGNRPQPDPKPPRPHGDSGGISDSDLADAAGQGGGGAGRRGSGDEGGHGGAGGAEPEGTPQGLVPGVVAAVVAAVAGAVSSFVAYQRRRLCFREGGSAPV
# [4] = target: T4, IL-2Ra expressed on cells (human, UniProt P01589 22-272); assay: flow cytometry, transfected 293T cells, 2 µg/ml
# T4 construct: Clone of the Origene human cDNA library; also called Interleukin 2 receptor alpha
# T4 sequence: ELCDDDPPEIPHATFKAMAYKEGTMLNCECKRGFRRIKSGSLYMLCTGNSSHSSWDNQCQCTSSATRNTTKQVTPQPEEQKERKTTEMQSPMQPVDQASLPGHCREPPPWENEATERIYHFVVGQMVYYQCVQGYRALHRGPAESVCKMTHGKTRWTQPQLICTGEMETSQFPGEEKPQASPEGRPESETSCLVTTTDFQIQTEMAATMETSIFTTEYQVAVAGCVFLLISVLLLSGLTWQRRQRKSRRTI
# BR3 expressed on cells [5] = target: T5, BR3 expressed on cells (human, UniProt Q96RJ3 1-184); assay: flow cytometry, transfected 293T cells, 2 µg/ml
# T5 construct: Clone of the Origene human cDNA library
# T5 sequence: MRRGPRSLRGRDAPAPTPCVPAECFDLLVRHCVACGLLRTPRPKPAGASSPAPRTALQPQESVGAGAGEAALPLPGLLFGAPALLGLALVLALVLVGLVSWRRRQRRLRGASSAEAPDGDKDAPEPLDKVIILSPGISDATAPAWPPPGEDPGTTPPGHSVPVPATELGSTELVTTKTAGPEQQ
# PSS8 expressed on cells [6] = target: T6, PSS8 expressed on cells (human, UniProt Q16651 30-343); assay: flow cytometry, transfected 293T cells, 2 µg/ml
# T6 construct: Clone of the Origene human cDNA library; also called Protease serine 8; prostasin
# T6 sequence (Q16651 30-343 limits assumed): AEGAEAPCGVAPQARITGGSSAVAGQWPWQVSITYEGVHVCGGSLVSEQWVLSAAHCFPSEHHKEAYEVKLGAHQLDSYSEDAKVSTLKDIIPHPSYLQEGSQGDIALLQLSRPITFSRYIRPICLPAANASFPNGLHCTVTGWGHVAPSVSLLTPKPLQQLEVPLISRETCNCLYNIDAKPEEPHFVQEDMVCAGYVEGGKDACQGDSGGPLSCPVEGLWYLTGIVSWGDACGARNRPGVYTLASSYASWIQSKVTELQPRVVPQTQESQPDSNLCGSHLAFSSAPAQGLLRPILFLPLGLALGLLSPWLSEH
# [7] = target: T3, mouse CD99 expressed on 293T cells; assay: flow cytometry, transfected 293T cells, 2 µg/ml; 293T-Neo: 0
# MAG expressed on cells = target: T7, MAG expressed on cells (human, UniProt P20916 20-626); assay: flow cytometry, transfected 293T cells, 2 µg/ml
# T7 construct: Clone of the Origene human cDNA library; also called Myelin associated glycoprotein; SIGLEC4A
# T7 sequence: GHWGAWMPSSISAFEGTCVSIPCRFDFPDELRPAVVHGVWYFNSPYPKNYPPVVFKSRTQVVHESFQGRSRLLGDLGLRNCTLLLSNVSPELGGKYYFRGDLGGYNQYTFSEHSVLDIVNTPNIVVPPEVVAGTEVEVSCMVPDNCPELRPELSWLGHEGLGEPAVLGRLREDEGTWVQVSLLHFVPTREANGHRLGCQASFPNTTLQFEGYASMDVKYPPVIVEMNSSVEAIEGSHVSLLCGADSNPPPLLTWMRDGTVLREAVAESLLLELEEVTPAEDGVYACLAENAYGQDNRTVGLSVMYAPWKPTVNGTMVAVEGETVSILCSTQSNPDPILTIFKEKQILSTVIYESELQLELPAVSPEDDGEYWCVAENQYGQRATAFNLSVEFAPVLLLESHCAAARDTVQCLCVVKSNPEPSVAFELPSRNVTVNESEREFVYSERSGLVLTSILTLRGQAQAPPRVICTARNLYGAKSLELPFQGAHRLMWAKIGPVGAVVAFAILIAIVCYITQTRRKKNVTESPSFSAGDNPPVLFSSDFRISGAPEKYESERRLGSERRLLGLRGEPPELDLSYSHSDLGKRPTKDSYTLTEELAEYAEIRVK
# [8] = target: T8, HSV1 glycoprotein B expressed on 293T cells (herpes simplex virus type 1, UniProt P10211 31-904); assay: flow cytometry, transfected 293T cells, ligand-expressing cells gated
# T8 construct: whole, on cells; also called HSV-1 gB; HSV1 gB
# [9] = target: T2, human NPDC1 expressed on cells; assay: as above
# [10] = target: T3, mouse CD99 expressed on 293T cells; assay: as above
# [11] = target: T4, IL-2Ra expressed on cells; assay: flow cytometry, transfected 293T cells
# BR3 expressed on cells [12] = target: T5, BR3 expressed on cells; assay: flow cytometry, transfected 293T cells
# PSS8 expressed on cells [13] = target: T6, PSS8 expressed on cells; assay: flow cytometry, transfected 293T cells
# T1 sequence (Q5KU26 whole entry S522P/G606S): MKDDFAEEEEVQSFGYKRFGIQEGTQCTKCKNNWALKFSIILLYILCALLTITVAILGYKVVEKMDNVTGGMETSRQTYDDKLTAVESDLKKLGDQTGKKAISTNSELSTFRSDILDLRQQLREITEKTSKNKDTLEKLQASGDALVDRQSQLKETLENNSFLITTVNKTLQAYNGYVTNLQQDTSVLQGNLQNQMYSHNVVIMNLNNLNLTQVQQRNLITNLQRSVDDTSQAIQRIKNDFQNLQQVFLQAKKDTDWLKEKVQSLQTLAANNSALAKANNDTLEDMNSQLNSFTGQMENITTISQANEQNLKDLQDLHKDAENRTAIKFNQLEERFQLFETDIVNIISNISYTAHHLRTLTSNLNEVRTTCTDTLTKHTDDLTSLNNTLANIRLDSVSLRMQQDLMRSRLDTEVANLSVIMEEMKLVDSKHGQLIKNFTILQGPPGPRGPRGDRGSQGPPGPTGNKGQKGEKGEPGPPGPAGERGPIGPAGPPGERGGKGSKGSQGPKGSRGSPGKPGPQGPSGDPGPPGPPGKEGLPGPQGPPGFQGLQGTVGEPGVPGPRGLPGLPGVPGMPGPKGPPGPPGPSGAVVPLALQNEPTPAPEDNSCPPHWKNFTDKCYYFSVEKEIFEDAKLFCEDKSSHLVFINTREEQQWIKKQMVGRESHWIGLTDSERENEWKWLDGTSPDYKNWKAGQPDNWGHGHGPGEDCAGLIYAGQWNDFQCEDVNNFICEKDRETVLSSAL
Binder,% cells in lower right quadrant [1] [%],% cells in lower right quadrant [2] [%],% cells in lower right quadrant [3] [%],% cells in lower right quadrant [4] [%],% cells in lower right quadrant (BR3 expressed on cells [5]) [%],% cells in lower right quadrant (PSS8 expressed on cells [6]) [%],% cells in lower right quadrant [7] [%],% cells in lower right quadrant (MAG expressed on cells) [%],binding result [8],binding result [9],binding result [10],binding result [11],binding result (BR3 expressed on cells [12]),binding result (PSS8 expressed on cells [13])
"mPILRα-Fc (Fc fusion, also called mouse PILRα-Fc; WT mPILRα-Fc; not shown: Fc of mouse IgG2a (PILRα-mIgG2a, called PILRα-Fc)) not shown",10.1,40.9,46.4,14.1,34.1,0.024,34,0.039,–,–,–,–,–,–
"mPILRαR133A-Fc (Fc fusion, Arg mutant of mPILRα-Fc; also called mPILRα133A-Fc; variant mPILRα (R133A); not shown: Fc of mouse IgG2a (PILRα-mIgG2a, called PILRα-Fc)) not shown",–,–,–,–,–,–,–,–,no binding,no binding,no binding,no binding (tested: 50 µg/ml),no binding (tested: 50 µg/ml),no binding (tested: 50 µg/ml)
